The values that follow come from article PMC5155689, “Pro-invasive Effect of Proto-oncogene PBF Is Modulated by an Interaction with Cortactin” (The Journal of Clinical Endocrinology and Metabolism, 2016).

In this experiment the target is T1, Y174A PBF-HA (UniProt P53801 33-180, Y174A).
T1 construct: also called PBF mutant Y174A; phospho-null PBF mutant (Y174A)
T1 sequence (looked up): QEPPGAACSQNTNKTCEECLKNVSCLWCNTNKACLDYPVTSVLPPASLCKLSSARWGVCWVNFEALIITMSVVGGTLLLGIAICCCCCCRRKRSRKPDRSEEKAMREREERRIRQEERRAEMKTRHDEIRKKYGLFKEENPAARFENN
Put plainly: co-IP; myc-tagged CTTN and HA-tagged PBF (WT or Y174A) transfected in MCF-7 and HeLa cells; in HeLa also after 50 nM dasatinib or vehicle. The note with it: partners not purified.

B1: human Myc-CTTN (cortactin) (natural protein, UniProt Q14247 1-550, looked up)
chain: MWKASAGHAVSIAQDDAGADDWETDPDFVNDVSEKEQRWGAKTVQGSGHQEHINIHKLRENVFQEHQTLKEKELETGPKASHGYGGKFGVEQDRMDKSAVGHEYQSKLSKHCSQVDSVRGFGGKFGVQMDRVDQSAVGFEYQGKTEKHASQKDYSSGFGGKYGVQADRVDKSAVGFDYQGKTEKHESQRDYSKGFGGKYGIDKDKVDKSAVGFEYQGKTEKHESQKDYVKGFGGKFGVQTDRQDKCALGWDHQEKLQLHESQKDYKTGFGGKFGVQSERQDSAAVGFDYKEKLAKHESQQDYSKGFGGKYGVQKDRMDKNASTFEDVTQVSSAYQKTVPVEAVTSKTSNIRANFENLAKEKEQEDRRKAEAERAQRMAKERQEQEEARRKLEEQARAKTQTPPVSPAPQPTEERLPSSPVYEDAASFKAELSYRGPVSGTEPEPVYSMEAADYREASSQQGLAYATEAVYESAEAPGHYPAEDSTYDEYENDLGITAVALYDYQAAGDDEISFDPDDIITNIEMIDDGWWRGVCKGRYGLFPANYVELRQ
notes: cortactin (CTTN), human; Origene plasmid No. RC223259; the isoform of the clone follows from the catalogue number; also called myc-tagged CTTN; source: plasmid bought: Origene
Turning to B1, the “fold change of binding against WT PBF” value is above 2 fold.
